{"source": "patent US20210330752A1", "about": "“FEED SUPPLEMENTS” (OmniGen Research, LLC, priority 2018, published 2021)", "origin": "cited, not measured here", "test_system": "binding protein", "data": [{"substance": "Insulin-like growth factor-1 [IGF-1]", "values": [{"measurement": "IGF-1 in plasma bound to a binding protein", "value": "more than 99%"}]}]}
